The values below come from patent US11491206B1, “Compositions and methods for the treatment of trail-resistant cancer” (Duke University, priority 2018, dated 2022).

For data set [1], the system named is HCT116, HCT15, Colo205, DLD-1, and Lovo. The experiment in a line: Single-agent cytotoxicity (MTT) in TRAIL-sensitive CRC cell lines. The format is cell-based, human. The method, then:
(§1) For single-agent cytotoxicity evaluation, DRA and ELP-DRA fusion proteins were tested in vitro using a colorimetric formazan assay (MTT) as follows. […] The cells were then treated with 10 μL additional media containing a serial dilution of the drug(s) of interest. All treatments were done in triplicate. […] The inhibition of cell viability was determined using measurements of the absorbance at 490 nm, which is the absorbance maximum of the formazan product. The dose-response curves were generated by plotting inhibition as a function of compound concentration.

For a further data set, the system named is CRC119. The experiment in a line: Single-agent cytotoxicity in patient-derived CRC119. In kind it is cell-based, human. The settings on record: CRC119s. The method, then: as §1
For data set [2] the following is noted: in vivo; cited from earlier work.
A further data set relates to HT29 cells. The experiment in a line: Single-agent cytotoxicity (MTT) in HT29. The format is cell-based, human. Here is the method:
as §1

For data set [3], the system named is RKO cells. In words: Single-agent cytotoxicity (MTT) in RKO. The format is cell-based, human. The method, then:
as §1

The next data set relates to CRC12x. The experiment in a line: Single-agent cytotoxicity in patient-derived CRC12x. In kind it is cell-based, human. The method, then: as §1
In another data set the test system is T84. The experiment in a line: Single-agent cytotoxicity (MTT) in T84. The format is cell-based, human. The method, then: as §1
In data set [4] the test system is RKO cells. The experiment in a line: Flow cytometry Annexin V apoptosis quantification in RKO. In kind it is cell-based, human. The settings on record: for % positive Annexin V+: single replicate, listed as SA. Here is the method: Flow Cytometry for Annexin-V Apoptosis Quantification. Cells were seeded in six-well plates overnight. The next day, cells were treated with the indicated amount of drug(s) or vehicle control (DMSO). Incubation time was 15 h for etoposide or 48 h for DRA alone, or DRA with sensitizers. To prepare samples for flow cytometry, each well of cells was washed twice with ice-cold PBS and resuspended in 1× annexin V binding buffer (10 mM HEPES, 140 mM NaCl, 2.5 mM CaCl2, pH 7.4) BD Biosciences). Allophycocyanin (APC)-conjugated Annexin V was used to measure surface exposure of phosphatidylserine and 7-aminoactinomycin D (7-AAD) was used as a viability probe (BD Biosciences). Cell samples were analyzed at 20,000 counts/sample using BD FACSVantage SE.
(In general: In flow cytometry, cells or beads pass a laser one at a time.)

The subject of the next data set is CRC247. The experiment in a line: Single-agent cytotoxicity in patient-derived CRC247. In kind it is cell-based, human. The method, then:
as §1

The target in a further data set is mouse death receptor (Mus musculus, UniProt Q9QZM4). To be noted: previous studies; cited from earlier work.

Several values for one entry are separate records, joined by “and”; a condition that tells them apart may be missing. Equal values may be shown once.

Sequence of mouse death receptor (Q9QZM4 53-381): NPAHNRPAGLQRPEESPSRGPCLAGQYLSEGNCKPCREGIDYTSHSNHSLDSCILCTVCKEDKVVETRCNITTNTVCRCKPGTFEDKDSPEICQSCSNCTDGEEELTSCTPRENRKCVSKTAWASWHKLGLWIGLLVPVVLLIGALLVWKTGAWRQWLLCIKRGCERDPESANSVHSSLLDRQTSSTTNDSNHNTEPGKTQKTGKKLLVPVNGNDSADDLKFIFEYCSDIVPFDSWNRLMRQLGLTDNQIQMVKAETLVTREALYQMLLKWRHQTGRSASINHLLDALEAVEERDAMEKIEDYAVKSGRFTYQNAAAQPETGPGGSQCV

B1: DRA monomer: single Tn3 type III fibronectin domain engineered to bind DR5 (protein)
chain: GAIEVKDVTDTTALITWAKPWVDPPPLWGCELTYGIKDVPGDRTTIDLQQKHTAYSIGNLKPDTEYEVSLICFDPYGMRSKPAKETFTT
For the molecule B1, the “induction of cell death” value in data set [1] (sensitive cell lines) is reported as “do not induce cell death”.

B2: DRA: hexameric protein of Tn3 fibronectin type III domains (SEQ ID NO: 1) binding DR5, joined by glycine-serine linkers (protein)
chain: GAIEVKDVTDTTALITWAKPWVDPPPLWGCELTYGIKDVPGDRTTIDLQQKHTAYSIGNLKPDTEYEVSLICFDPYGMRSKPAKETFTTGGGGSGGGGSGGGGSGAIEVKDVTDTTALITWAKPWVDPPPLWGCELTYGIKDVPGDRTTIDLQQKHTAYSIGNLKPDTEYEVSLICFDPYGMRSKPAKETFTTGGGGSGGGGSGGGGSGAIEVKDVTDTTALITWAKPWVDPPPLWGCELTYGIKDVPGDRTTIDLQQKHTAYSIGNLKPDTEYEVSLICFDPYGMRSKPAKETFTTGGGGSGGGGSGGGGSGAIEVKDVTDTTALITWAKPWVDPPPLWGCELTYGIKDVPGDRTTIDLQQKHTAYSIGNLKPDTEYEVSLICFDPYGMRSKPAKETFTTGGGGSGGGGSGGGGSGAIEVKDVTDTTALITWAKPWVDPPPLWGCELTYGIKDVPGDRTTIDLQQKHTAYSIGNLKPDTEYEVSLICFDPYGMRSKPAKETFTTGGGGSGGGGSGGGGSGAIEVKDVTDTTALITWAKPWVDPPPLWGCELTYGIKDVPGDRTTIDLQQKHTAYSIGNLKPDTEYEVSLICFDPYGMRSKPAKETFTTGGGGSGGGGSGGGGSHHHHHHHH
A word on the EC50: it is the concentration at which the effect is half-maximal. A higher EC50 goes with weaker potency. In the case of B2, the EC50 in the data set on CRC119 is 26.1 pM; in the data set on RKO cells [3], greater than 100000 pM; with CRC12x, 9.8 pM; in data set [1] (all tested TRAIL-sensitive cell lines), “picomolar range”. For the same molecule, the half-life result in [2] is “approximately 36 min”. Moreover, the values for the cytotoxicity result in the data set on HT29 cells, in the data set on T84 and in the data set on CRC247 were “induces cytotoxicity”, “induces cytotoxicity” and “highly resistant”, respectively. The “Average % positive Annexin V+” value with RKO cells [4] (0.5 pM SA) is reported as 4.90%; with RKO cells [4] (1 pM SA), 6.01%. The “% positive Annexin V+” value is 5.32% and 5.86% and 3.53% in the data set on RKO cells [4] (0.5 pM SA); 6.97% and 5.22% and 5.85% in the data set with RKO cells [4] (1 pM SA). Besides, the “interaction with mouse death receptor” value in the data set with mouse death receptor was “no interaction”. Moreover, the “increase in potency of DRA compared to TRAIL (T/D fold, EC50-TRAIL/EC50-DRA)” value in data set [1] (TRAIL-sensitive cell lines) is listed as 70-1700 times.
